This is an account of results in patent publication US20240279331A1 (University of California, published 2024).

For assay [1], the target named is T1, CD16 as expressed on NK cells (human, UniProt P08637 17-254).
T1 construct: whole, on cells; Primary human peripheral blood NK cells; PBMCs in the bispecific cytotoxicity assay; also called peripheral blood NK cells; PBMCs
The assay can be described thus: flow cytometry, Fab titration on peripheral blood NK cells (FIG. S6). The procedure: (§1) To evaluate the affinity of the selected antibodies for NK cells, we titrated the nine Fab clones on peripheral blood NK cells.
(§2) Titrations were performed on primary human NK cells or tetracycline induced overexpression cell lines as indicated. When tetracycline induced overexpression cell lines were used, cells were dosed with 10 μg/mL tetracycline for 2 days prior to staining. The starting concentration of each Fab or bispecific antibody was 1 μM, and serial 1:5 dilutions were performed. Antibodies were incubated with cells for 1 hr at 4° C., washed 2 times in 3% BSA in PBS pH 7.4, and stained for 30 min with an Alexafluor-647 conjugated goat anti-human IgG F(ab′)2 fragment (Jackson ImmunoResearch Laboratories) at a 1:50 dilution. After an additional 3 washes, cells were fixed and fluorescence was quantified using a CytoFLEX (Beckman Coulter). All flow cytometry data were analyzed using FlowJo software.

Assay [2] addresses T2, CD16 extracellular domain fused to a generic transmembrane domain, on tetracycline-inducible FlpIn cells (human, UniProt P08637 17-208).
T2 construct: extracellular domain; HEK293 FlpIn cells, expression on tetracycline addition; also called CD16 over expression cell line; CD16A; not shown: transmembrane domain of platelet-derived growth factor (so in the source) with a HA tag
The assay can be described thus: flow cytometry, Fab on tetracycline-inducible cells over-expressing the ECD (FIG. S5). The protocol:
(§3) To investigate the specificity of both activating and non-functional antibodies for their receptor targets, we developed a tetracycline-inducible cell line for each protein target—CD16, NCR1, NCR3, CD244, TNFRSF9, and TNFSF4. The ECDs of these proteins were fused to a generic transmembrane domain and were expressed upon tetracycline addition.
as §2

The target of assay [3] is T3, CD244 extracellular domain fused to a generic transmembrane domain, on tetracycline-inducible FlpIn cells (UniProt Q9BZW8 22-229).
T3 construct: extracellular domain; not shown: transmembrane domain of platelet-derived growth factor (so in the source) with a HA tag
T3 sequence (looked up): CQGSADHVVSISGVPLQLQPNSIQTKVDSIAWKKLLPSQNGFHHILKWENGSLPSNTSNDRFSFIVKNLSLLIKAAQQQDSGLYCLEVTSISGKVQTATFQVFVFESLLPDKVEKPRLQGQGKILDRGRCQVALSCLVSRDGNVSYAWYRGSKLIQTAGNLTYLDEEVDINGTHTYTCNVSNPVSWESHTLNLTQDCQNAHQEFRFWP
The assay can be described thus: flow cytometry, Fab on tetracycline-inducible cell lines over-expressing each ECD (FIG. S5). The protocol:
as §3, §2
(In general: A flow cytometer gives signals particle by particle.)

Assay [4] deals with T4, TNFSF4 extracellular domain fused to a generic transmembrane domain, on tetracycline-inducible FlpIn cells (UniProt P23510 51-183).
T4 construct: extracellular domain; also called OX40L; not shown: transmembrane domain of platelet-derived growth factor (so in the source) with a HA tag
T4 sequence (looked up): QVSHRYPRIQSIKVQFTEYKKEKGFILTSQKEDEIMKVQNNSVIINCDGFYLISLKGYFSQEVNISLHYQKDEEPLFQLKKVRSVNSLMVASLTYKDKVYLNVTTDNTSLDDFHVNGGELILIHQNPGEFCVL
The description is as above. The protocol:
as §3, §2

Assay [5] addresses T5, NCR3 extracellular domain fused to a generic transmembrane domain, on tetracycline-inducible FlpIn cells (human, UniProt O14931 19-135).
T5 construct: extracellular domain; HEK293 FlpIn cells, expression on tetracycline addition; also called NCR3 over expression cell line; not shown: transmembrane domain of platelet-derived growth factor (so in the source) with a HA tag
T5 sequence (looked up): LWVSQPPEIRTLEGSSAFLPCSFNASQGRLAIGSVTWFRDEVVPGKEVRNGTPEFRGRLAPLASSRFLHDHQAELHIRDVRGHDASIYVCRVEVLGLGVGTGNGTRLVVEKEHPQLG
The description is as above. The procedure:
as §3, §2

The target of assay [6] is T6, NCR1 extracellular domain fused to a generic transmembrane domain, on tetracycline-inducible FlpIn cells (human, UniProt O76036 22-258).
T6 construct: extracellular domain; HEK293 FlpIn cells, expression on tetracycline addition; also called NCR1 over expression cell line; not shown: transmembrane domain of platelet-derived growth factor (so in the source) with a HA tag
The assay is described as above. The protocol: as §3, §2

Assay [7] addresses T7, TNFRSF9 extracellular domain fused to a generic transmembrane domain, on tetracycline-inducible FlpIn cells (UniProt Q07011 24-186).
T7 construct: extracellular domain; also called 4-1BB; not shown: transmembrane domain of platelet-derived growth factor (so in the source) with a HA tag
The description is as above. The protocol:
as §3, §2

Assay [8] has as its target T8, CD16 extracellular domain TEV-cleavable Fc-fusion, biotinylated (human, UniProt P08637 17-208, biotinylated (site not stated)).
T8 construct: extracellular domain; Antigen of the phage selections and Fab-phage ELISAs; also called CD16A; not shown: TEV cleavage site and Fc domain
The assay can be described thus: Fab-phage selection and Fab-phage ELISA on biotinylated ECD Fc-fusion (antigen column of Table S1). The protocol: (§4) To generate antibodies against these antigens, we expressed the extracellular domains (ECDs) of these proteins as TEV-cleavable Fc-fusions and performed Fab-phage display selections to enrich for high affinity antibody binders (FIG. S1), as previously described [Hornsby, M. et al., Mol Cell Proteomics. 14(10), 2833-2847 (2015)]. After each selection, Fab-phage ELISAs were performed to determine the relative affinity and selectivity of these binders for their antigen targets (FIG. S2).
(§5) TEV-cleavable Fc-fusion proteins were expressed and biotinylated in Expi293F cells using the standard expression protocol. Media were harvested after 4 days of expression and protein was purified by protein A affinity chromatography. Phage selections were performed according to previously established protocols1 with the Fab-phage Library E2. Non-specific binders were depleted from the library by incubating the phage pool with Fc-domain immobilized on streptavidin beads. Fab phage were selected using biotinylated Fc-fusions that were captured on streptavidin-coated magnetic beads, and were released through TEV elution. Each selection consists of four rounds. With each round, decreasing amounts of Fc-fusions (1 μM, 100 nM, 10 nM, and […]) were used. ELISAs were performed for 96 individual Fab-phage clones from the third or fourth rounds of selection to evaluate for affinity and selectivity.
(§6) ELISAs were performed as previously described1. In brief, Maxisorp plates were coated with 10 μg/mL of Neutravidin overnight at 4° C. Biotinylated target antigen (20 nM) was captured on the Neutravidin coated plates for 30 min, and then exposed to a 1:5 dilution of phage supernatants for 30 min. Bound phage were detected via a horseradish-peroxidase-conjugated anti-phage monoclonal antibody (GE Lifesciences).
A general note: An ELISA detects its analyte on a solid surface through an enzyme-linked reagent.

For assay [9], the target named is T9, NCR1 as expressed on NK cells (human, UniProt O76036 22-304).
T9 construct: whole, on cells; Primary human peripheral blood NK cells; NKL cells stably transduced with NCR1 in the bispecific cytotoxicity assay; also called peripheral blood NK cells; NCR1+ NKL cells
Kind of assay: flow cytometry, Fab titration on peripheral blood NK cells (FIG. S6). The protocol:
as §1, §2

In assay [10] the target is T6, NCR1 extracellular domain fused to a …. Kind of assay: flow cytometry, Fab on tetracycline-inducible cells over-expressing the ECD (FIG. S5). The procedure: as §3, §2
The target in assay [11] is T2, CD16 extracellular domain fused to a …. The assay can be described thus: flow cytometry, Fab on tetracycline-inducible cell lines over-expressing each ECD (FIG. S5). The procedure:
as §3, §2

In assay [12] the target is T10, NCR1 extracellular domain TEV-cleavable Fc-fusion, biotinylated (human, UniProt O76036 22-258, biotinylated (site not stated)).
T10 construct: extracellular domain; Antigen of the phage selections and Fab-phage ELISAs; not shown: TEV cleavage site and Fc domain
Kind of assay: Fab-phage selection and Fab-phage ELISA on biotinylated ECD Fc-fusion (antigen column of Table S1). The protocol:
as §4, §5, §6

T6 sequence (O76036 22-258): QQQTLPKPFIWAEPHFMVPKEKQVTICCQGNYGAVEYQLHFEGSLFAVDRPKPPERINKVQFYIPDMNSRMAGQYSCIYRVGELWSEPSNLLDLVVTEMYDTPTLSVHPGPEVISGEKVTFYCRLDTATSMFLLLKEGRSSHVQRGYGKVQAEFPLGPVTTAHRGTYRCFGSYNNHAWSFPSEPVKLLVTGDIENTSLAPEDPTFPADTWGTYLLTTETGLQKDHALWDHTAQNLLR
T2 sequence (P08637 17-208): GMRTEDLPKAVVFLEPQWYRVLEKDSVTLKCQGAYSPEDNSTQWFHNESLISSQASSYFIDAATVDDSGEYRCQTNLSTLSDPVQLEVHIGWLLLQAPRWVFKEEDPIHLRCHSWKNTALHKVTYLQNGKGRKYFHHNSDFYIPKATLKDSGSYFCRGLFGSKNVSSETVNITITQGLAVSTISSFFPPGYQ
T9 sequence (O76036 22-304): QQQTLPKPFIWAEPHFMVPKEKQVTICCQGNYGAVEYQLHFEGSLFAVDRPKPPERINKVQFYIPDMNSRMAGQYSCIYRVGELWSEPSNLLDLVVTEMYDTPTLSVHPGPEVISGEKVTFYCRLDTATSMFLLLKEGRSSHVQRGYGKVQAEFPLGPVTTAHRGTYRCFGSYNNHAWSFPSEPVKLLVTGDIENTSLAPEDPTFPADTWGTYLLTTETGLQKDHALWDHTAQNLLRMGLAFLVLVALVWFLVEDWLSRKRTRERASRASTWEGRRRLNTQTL
T10 sequence (O76036 22-258): as the sequence (O76036 22-258) above
T8 sequence (P08637 17-208): as the sequence (P08637 17-208) above
T1 sequence (P08637 17-254): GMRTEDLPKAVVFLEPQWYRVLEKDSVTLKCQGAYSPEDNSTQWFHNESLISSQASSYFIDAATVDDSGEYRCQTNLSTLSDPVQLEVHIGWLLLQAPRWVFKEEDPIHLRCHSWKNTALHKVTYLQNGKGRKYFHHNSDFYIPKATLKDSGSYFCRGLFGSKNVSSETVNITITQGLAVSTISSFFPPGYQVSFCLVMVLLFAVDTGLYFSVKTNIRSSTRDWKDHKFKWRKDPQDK

B1: CD16.03 Fab (Fab)
heavy: EVQLVESGGGLVQPGGSLRLSCAASGFNFSSYSIHWVRQAPGKGLEWVASIYSSSGSTSYADSVKGRFTISADTSKNTAYLQMNSLRAEDTAVYYCARWSYDQYYDQHGYYFYYWGFDYWGQGTLVTVSSASTKGPSVFPLAPSSKSTSGGTAALGCLVKDYFPEPVTVSWNSGALTSGVHTFPAVLQSSGLYSLSSVVTVPSSSLGTQTYICNVNHKPSNTKVDKKVEPKSCDKTHT
light: DIQMTQSPSSLSASVGDRVTITCRASQSVSSAVAWYQQKPGKAPKLLIYSASSLYSGVPSRFSGSRSGTDFTLTISSLQPEDFATYYCQQSSAELITFGQGTKVEIKRTVAAPSVFIFPPSDSQLKSGTASVVCLLNNFYPREAKVQWKVDNALQSGNSQESVTEQDSKDSTYSLSSTLTLSKADYEKHKVYACEVTHQGLSSPVTKSFNRGEC
notes: also called anti-CD16 Fab #3
B1: the binding result in assay [1] is on record as “binds”; in assay [2], “binds”; in assay [3] it was “no binding”; in assay [4], “no binding”; in [5], “no binding”; in assay [6], “no binding”. Besides, the binding result in [7] is given as “no binding”; in assay [8], “binds”.

B2: NCR1.11 Fab (Fab)
heavy: EVQLVESGGGLVQPGGSLRLSCAASGFNVYYSYIHWVRQAPGKGLEWVASISSYYGSTYYADSVKGRFTISADTSKNTAYLQMNSLRAEDTAVYYCARSRYLQDYWSSWWVSWYGLDYWGQGTLVTVSSASTKGPSVFPLAPSSKSTSGGTAALGCLVKDYFPEPVTVSWNSGALTSGVHTFPAVLQSSGLYSLSSVVTVPSSSLGTQTYICNVNHKPSNTKVDKKVEPKSCDKTHT
light: DIQMTQSPSSLSASVGDRVTITCRASQSVSSAVAWYQQKPGKAPKLLIYSASSLYSGVPSRFSGSRSGTDFTLTISSLQPEDFATYYCQQSSSSLITFGQGTKVEIKRTVAAPSVFIFPPSDSQLKSGTASVVCLLNNFYPREAKVQWKVDNALQSGNSQESVTEQDSKDSTYSLSSTLTLSKADYEKHKVYACEVTHQGLSSPVTKSFNRGEC
notes: also called anti-NCR1 Fab #27
On to B2, for which the binding result in assay [9] is reported as “binds”; in assay [10], “binds”; in [3] it was “no binding”; in assay [4] it was “no binding”; in assay [5] it was “no binding”; in [11], “no binding”. Moreover, the binding result in assay [7] is on record as “no binding”; in [12] it was “binds”.
